Earlier results, collected in PMC10696404.
Values joined by “and” are separate entries in the source; they are usually repeats but may differ in a detail not shown here. Identical values can stand only once.

Legend:
NRP1 (Homo sapiens) = NRP1 (Homo sapiens) (UniProt O14786); assay: SPR
CD146 ECD (Homo sapiens) = CD146 ECD (Homo sapiens) (UniProt P43121); assay: bio-layer interferometry
CD13 (Homo sapiens) = CD13 (Homo sapiens) (UniProt P15144); assay: SPR
JAG1 (Homo sapiens) = JAG1 (Homo sapiens) (UniProt P78504); assay: SPR
Sequence of JAG1 (Homo sapiens) (P78504 34-1218): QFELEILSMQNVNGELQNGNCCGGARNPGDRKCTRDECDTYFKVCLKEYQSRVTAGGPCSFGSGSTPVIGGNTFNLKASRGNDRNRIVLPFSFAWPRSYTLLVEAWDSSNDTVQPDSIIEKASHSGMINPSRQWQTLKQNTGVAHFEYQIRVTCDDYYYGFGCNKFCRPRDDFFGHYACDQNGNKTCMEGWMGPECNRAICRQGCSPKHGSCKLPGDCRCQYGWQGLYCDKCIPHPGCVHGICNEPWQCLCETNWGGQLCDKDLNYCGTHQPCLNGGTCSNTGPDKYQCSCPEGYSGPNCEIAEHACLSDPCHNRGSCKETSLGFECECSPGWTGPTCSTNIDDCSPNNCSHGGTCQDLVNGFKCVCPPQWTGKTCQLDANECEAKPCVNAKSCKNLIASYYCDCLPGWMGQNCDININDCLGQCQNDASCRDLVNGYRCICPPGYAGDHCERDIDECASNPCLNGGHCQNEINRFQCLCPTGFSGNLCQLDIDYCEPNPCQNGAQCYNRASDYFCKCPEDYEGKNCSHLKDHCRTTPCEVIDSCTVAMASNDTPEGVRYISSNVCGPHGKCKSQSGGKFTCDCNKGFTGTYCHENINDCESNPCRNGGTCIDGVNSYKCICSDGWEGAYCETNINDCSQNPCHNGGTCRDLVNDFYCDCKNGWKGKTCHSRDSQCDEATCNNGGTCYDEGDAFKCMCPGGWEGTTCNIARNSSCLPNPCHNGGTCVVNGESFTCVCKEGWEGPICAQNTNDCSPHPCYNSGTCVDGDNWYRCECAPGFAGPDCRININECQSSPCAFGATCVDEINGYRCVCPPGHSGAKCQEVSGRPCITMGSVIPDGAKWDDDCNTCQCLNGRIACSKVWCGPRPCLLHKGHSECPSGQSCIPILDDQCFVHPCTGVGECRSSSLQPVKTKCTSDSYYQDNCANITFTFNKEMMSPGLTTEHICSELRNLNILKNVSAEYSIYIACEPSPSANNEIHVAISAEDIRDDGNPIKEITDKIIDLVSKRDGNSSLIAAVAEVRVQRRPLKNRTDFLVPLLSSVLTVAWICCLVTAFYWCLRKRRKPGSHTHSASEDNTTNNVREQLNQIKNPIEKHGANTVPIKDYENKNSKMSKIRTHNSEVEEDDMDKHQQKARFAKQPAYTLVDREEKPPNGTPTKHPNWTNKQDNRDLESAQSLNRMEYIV

DLL4 (Homo sapiens) = DLL4 (Homo sapiens) (UniProt Q9NR61); assay: SPR
CEA (Homo sapiens) = CEA (Homo sapiens) (UniProt P06731); assay: SPR
Sequence of CEA (Homo sapiens) (P06731 35-676): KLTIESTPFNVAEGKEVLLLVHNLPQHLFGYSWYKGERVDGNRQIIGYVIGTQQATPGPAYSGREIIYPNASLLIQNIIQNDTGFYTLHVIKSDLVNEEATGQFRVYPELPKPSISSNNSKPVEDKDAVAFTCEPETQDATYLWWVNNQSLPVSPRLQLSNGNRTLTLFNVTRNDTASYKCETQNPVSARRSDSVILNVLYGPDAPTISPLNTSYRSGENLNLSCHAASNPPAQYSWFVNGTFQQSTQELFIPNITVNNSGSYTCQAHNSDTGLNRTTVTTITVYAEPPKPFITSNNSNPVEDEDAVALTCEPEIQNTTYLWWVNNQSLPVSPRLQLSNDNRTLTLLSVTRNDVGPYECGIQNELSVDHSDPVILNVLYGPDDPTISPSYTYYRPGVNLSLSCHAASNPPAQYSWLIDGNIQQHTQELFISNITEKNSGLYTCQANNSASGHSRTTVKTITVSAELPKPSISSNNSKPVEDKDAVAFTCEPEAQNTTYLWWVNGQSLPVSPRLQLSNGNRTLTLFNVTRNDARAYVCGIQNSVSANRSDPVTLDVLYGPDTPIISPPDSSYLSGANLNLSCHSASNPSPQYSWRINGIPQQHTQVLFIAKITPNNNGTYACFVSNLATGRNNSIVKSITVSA

CD44vRA (Homo sapiens) = CD44vRA (Homo sapiens) (UniProt P16070); assay: SPR
CD44v3-10 (Homo sapiens) = CD44v3-10 (Homo sapiens) (UniProt P16070); assay: SPR
ALCAM (Homo sapiens) = ALCAM (Homo sapiens) (UniProt Q13740); assay: SPR
Sequence of ALCAM (Homo sapiens) (Q13740 28-583): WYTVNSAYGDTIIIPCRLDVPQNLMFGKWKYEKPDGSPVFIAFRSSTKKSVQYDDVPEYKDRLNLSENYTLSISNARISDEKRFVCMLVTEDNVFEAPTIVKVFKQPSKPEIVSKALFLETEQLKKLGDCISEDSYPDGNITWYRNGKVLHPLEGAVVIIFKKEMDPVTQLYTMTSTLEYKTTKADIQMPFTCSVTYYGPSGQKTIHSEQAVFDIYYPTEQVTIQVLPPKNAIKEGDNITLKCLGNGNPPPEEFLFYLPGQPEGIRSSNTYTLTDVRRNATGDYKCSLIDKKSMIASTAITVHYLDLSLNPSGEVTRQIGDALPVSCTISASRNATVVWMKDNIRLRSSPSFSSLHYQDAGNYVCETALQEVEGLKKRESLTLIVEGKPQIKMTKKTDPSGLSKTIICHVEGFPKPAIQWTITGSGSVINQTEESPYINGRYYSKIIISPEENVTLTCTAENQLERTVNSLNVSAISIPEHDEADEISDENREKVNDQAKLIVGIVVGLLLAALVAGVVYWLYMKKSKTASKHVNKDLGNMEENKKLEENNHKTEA

CD44s (Homo sapiens) = CD44s (Homo sapiens) (UniProt P16070); assay: SPR

Sequence of GAL-8 (O00214 whole entry): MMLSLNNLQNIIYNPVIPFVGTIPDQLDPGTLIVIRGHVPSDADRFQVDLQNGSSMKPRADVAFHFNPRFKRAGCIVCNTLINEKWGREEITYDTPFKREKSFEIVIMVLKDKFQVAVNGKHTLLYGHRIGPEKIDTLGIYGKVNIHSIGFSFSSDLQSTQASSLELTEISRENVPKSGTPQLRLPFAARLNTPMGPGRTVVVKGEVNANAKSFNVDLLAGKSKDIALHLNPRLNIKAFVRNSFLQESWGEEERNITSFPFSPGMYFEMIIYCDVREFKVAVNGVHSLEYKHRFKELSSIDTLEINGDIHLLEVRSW
Sequence of GAL-3 (P17931 2-250): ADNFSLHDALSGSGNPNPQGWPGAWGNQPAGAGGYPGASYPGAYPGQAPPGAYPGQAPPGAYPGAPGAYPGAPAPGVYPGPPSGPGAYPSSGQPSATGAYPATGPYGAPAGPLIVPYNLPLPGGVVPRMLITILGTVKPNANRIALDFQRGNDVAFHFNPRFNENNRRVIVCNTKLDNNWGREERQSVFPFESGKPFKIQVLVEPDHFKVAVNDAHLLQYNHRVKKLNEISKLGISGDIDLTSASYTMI
Sequence of NRP1 (Homo sapiens) (O14786 22-923): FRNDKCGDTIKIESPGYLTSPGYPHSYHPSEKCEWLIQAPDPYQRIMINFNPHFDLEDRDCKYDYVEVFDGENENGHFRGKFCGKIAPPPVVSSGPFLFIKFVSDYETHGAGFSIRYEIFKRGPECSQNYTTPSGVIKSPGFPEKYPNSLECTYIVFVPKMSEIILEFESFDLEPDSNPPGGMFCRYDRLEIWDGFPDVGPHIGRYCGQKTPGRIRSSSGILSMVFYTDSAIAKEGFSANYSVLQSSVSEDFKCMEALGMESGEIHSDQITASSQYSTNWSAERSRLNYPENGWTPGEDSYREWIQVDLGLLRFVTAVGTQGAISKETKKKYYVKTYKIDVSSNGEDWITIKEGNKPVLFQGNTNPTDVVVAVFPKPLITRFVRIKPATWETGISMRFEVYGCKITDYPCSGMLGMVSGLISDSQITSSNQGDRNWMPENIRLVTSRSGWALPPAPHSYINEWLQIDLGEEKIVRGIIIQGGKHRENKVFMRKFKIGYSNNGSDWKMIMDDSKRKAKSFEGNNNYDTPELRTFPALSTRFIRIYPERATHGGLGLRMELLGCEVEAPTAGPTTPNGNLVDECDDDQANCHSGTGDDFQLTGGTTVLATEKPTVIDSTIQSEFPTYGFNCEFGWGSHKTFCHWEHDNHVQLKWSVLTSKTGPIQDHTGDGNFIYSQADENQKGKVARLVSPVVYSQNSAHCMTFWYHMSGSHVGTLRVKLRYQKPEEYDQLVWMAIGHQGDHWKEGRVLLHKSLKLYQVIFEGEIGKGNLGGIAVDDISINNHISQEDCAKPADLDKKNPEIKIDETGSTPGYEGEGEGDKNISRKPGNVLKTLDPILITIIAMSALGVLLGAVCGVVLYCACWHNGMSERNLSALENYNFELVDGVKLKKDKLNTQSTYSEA
Sequence of GAL-4 (P56470 whole entry): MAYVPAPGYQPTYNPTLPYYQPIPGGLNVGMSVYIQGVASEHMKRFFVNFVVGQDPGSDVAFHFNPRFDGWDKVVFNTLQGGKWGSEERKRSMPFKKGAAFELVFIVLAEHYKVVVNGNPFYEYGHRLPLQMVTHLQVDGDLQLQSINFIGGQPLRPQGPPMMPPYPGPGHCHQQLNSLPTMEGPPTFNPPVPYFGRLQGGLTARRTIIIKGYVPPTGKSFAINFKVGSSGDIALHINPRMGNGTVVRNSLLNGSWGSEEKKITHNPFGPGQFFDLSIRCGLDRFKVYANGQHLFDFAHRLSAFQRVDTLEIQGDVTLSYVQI
Sequence of GAL-1 (P09382 2-135): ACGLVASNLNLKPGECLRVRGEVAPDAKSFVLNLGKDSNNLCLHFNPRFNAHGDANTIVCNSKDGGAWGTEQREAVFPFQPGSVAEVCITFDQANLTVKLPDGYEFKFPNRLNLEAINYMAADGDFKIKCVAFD
Sequence of CD146 ECD (Homo sapiens) (P43121 24-559): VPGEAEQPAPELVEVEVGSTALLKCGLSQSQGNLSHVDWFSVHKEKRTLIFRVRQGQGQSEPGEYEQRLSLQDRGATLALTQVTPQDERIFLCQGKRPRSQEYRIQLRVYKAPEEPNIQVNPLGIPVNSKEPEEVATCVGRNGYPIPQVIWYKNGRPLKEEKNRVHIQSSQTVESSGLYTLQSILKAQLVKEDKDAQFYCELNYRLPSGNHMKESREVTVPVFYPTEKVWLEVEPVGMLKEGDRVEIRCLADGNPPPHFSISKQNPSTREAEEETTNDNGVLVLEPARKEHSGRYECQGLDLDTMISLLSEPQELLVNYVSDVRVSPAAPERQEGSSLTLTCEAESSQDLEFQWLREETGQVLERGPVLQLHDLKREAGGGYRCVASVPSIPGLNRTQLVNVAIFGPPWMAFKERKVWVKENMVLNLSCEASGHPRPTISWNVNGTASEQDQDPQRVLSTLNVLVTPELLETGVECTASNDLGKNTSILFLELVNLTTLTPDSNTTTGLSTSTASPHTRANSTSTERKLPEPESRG

Substance: GAL-1 (from UniProt P09382)
- Kd (NRP1 (Homo sapiens)): 109 nM

Substance: GAL-3 (from UniProt P17931)
- Kd (CD146 ECD (Homo sapiens)): 1100 nM
- Kd (CD13 (Homo sapiens)): 349 nM
- Kd (JAG1 (Homo sapiens)): 8910 nM
- Kd (DLL4 (Homo sapiens)): 8520 nM

Substance: GAL-4 (from UniProt P56470)
- Kd (CEA (Homo sapiens)): 20 nM

Substance: GAL-8 (from UniProt O00214)
- Kd (CD44vRA (Homo sapiens)): 5.8 nM
- Kd (CD44v3-10 (Homo sapiens)): 27 nM
- Kd (ALCAM (Homo sapiens)): 3190 nM and 2000 nM
- Kd (CD44s (Homo sapiens)): 10000 nM
